Read-outs that look alike come from different tables or passages of the source. Each block holds one molecule with its values, some of them ahead of it.
Assays:
[1] = target: recombinant bovine PAG-2 (fusion protein with the FLAG peptide) (bovine) (UniProt Q28057); experiment: immuno-trap protease assay on crude insect cell lysate (second row)
[2] = target: recombinant bovine PAG-12 (fusion protein with the FLAG peptide) (bovine); experiment: as above
[3] = target: recombinant porcine PAG-2 (FLAG-tagged) (porcine) (UniProt Q29079); experiment: as above
[4] = target: recombinant bovine PAG-2 (fusion protein with the FLAG peptide) (bovine) (UniProt Q28057); experiment: immuno-trap protease assay on crude insect cell lysate
[5] = target: recombinant bovine PAG-12 (fusion protein with the FLAG peptide) (bovine); experiment: as above
[6] = target: recombinant porcine PAG-2 (FLAG-tagged) (porcine) (UniProt Q29079); experiment: as above
[7] = target: recombinant equine-TSH-beta (equine) (UniProt Q28376); experiment: immuno-trap protease assay, anti-FLAG with TSH-beta; TSH-beta has no proteolytic activity, so the reading is background and does not tell whether it was trapped
[8] = target: control insect cell lysate (sf9 cells infected with empty Baculovirus); experiment: immuno-trap protease assay, control lysate
[9] = target: control insect cell lysate (sf9 cells infected with empty Baculovirus); experiment: immuno-trap protease assay, control lysate (second row)
[10] = target: recombinant porcine PAG-2 (FLAG-tagged) (porcine) (UniProt Q29079); experiment: immuno-trap protease assay, anti-FLAG with poPAG-2 lysate as positive control
[11] = target: bovine serum albumin (bovine) (UniProt P02769); experiment: immuno-trap protease assay, 1 ug rabbit immunoglobulins coated, background control, 50 ng blank column
[12] = test system: T1, fluorescent cathepsin D/E substrate MOCac-Gly-Lys-Pro-Ile-Leu-Phe-Phe-Arg-Leu-Lys(Dnp)-D-Arg-NH2
T1 sequence: GKPILFFRLK

[13] = target: T1, fluorescent cathepsin D/E substrate MOCac-Gly-Lys-Pro-Ile-Leu-Phe-Phe-Arg-Leu-Lys(Dnp)-D-Arg-NH2; experiment: cell-based or functional assay
[14] = target: T2, fluorescent cathepsin D/E substrate MOCac-Gly-Lys-Pro-Ile-Leu-Phe-Phe-Arg-Leu-Lys(Dnp)-D-Arg-NH2
T2 chain: GKPILFFRLK

Chain of UniProt P02769 (P02769 25-607 limits assumed): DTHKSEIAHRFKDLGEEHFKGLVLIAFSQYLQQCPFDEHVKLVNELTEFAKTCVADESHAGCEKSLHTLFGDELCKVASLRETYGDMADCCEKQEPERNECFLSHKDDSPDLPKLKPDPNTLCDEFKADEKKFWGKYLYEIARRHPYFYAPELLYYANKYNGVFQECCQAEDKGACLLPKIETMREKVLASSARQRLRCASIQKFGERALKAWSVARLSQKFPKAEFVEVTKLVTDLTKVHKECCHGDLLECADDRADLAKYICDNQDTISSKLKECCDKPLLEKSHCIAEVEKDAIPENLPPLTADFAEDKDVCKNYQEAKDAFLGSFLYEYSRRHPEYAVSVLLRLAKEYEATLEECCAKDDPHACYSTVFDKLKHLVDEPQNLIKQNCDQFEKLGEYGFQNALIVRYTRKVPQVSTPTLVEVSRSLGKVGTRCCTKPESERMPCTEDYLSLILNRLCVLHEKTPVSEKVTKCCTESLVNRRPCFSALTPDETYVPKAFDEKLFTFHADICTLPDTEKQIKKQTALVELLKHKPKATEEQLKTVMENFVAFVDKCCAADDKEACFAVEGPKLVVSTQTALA

- relative fluorescence of released product (relative fluorescence) [1]: 26500
- relative fluorescence of released product (relative fluorescence) [2]: 23000
- relative fluorescence of released product (relative fluorescence) [3]: 92300
- relative fluorescence of released product (relative fluorescence) [4]: 27000
- relative fluorescence of released product (relative fluorescence) [5]: 42300
- relative fluorescence of released product (relative fluorescence) [6]: 96800
- relative fluorescent product release (relative fluorescence) [7]: 47000
- relative fluorescence of released product (relative fluorescence) [8]: 4120
- relative fluorescence of released product (relative fluorescence) [9]: 7760
- relative fluorescent product release (relative fluorescence) [10]: 97400
Molecule: anti-FLAG monoclonal antibody (M2; Sigma)

- relative fluorescence (counts) of released product [11]: 6040 counts
Molecule: rabbit immunoglobulins (background control) (antibody)

Molecule: recombinant boPAG-6 (FLAG epitope tag fusion)
- proteolytic activity [12]: recombinant boPAG-6, -8, -9 and -10 have proteolytic activity with acidic pH optima
- relative fluorescent product release, anti-FLAG immuno-trap protease assay, pH 3.0 (relative fluorescence) [12]: 84000
- relative fluorescent product release, anti-FLAG immuno-trap protease assay, pH 4.0 (relative fluorescence) [12]: 77900
- relative fluorescent product release, anti-FLAG immuno-trap protease assay, pH 5.0 (relative fluorescence) [12]: 66300
- relative fluorescent product release, anti-FLAG immuno-trap protease assay, pH 6.0 (relative fluorescence) [12]: 31300
- relative fluorescent product release, anti-FLAG immuno-trap protease assay, pH 7.0 (relative fluorescence) [12]: 24300

Molecule: recombinant boPAG-8 (FLAG epitope tag fusion)
- proteolytic activity [12]: recombinant boPAG-6, -8, -9 and -10 have proteolytic activity with acidic pH optima
- relative fluorescent product release, anti-FLAG immuno-trap protease assay, pH 3.0 (relative fluorescence) [12]: 80600
- relative fluorescent product release, anti-FLAG immuno-trap protease assay, pH 4.0 (relative fluorescence) [12]: 63600
- relative fluorescent product release, anti-FLAG immuno-trap protease assay, pH 5.0 (relative fluorescence) [12]: 56100
- relative fluorescent product release, anti-FLAG immuno-trap protease assay, pH 6.0 (relative fluorescence) [12]: 31900
- relative fluorescent product release, anti-FLAG immuno-trap protease assay, pH 7.0 (relative fluorescence) [12]: 26400

Molecule: recombinant boPAG-9 (FLAG epitope tag fusion)
- proteolytic activity [12]: recombinant boPAG-6, -8, -9 and -10 have proteolytic activity with acidic pH optima
- relative fluorescent product release, anti-FLAG immuno-trap protease assay, pH 3.0 (relative fluorescence) [12]: 72100
- relative fluorescent product release, anti-FLAG immuno-trap protease assay, pH 4.0 (relative fluorescence) [12]: 55000
- relative fluorescent product release, anti-FLAG immuno-trap protease assay, pH 5.0 (relative fluorescence) [12]: 48100
- relative fluorescent product release, anti-FLAG immuno-trap protease assay, pH 6.0 (relative fluorescence) [12]: 27800
- relative fluorescent product release, anti-FLAG immuno-trap protease assay, pH 7.0 (relative fluorescence) [12]: 24400

Molecule: recombinant boPAG-10 (FLAG epitope tag fusion)
- proteolytic activity [12]: recombinant boPAG-6, -8, -9 and -10 have proteolytic activity with acidic pH optima
- relative fluorescent product release, anti-FLAG immuno-trap protease assay, pH 3.0 (relative fluorescence) [12]: 52100
- relative fluorescent product release, anti-FLAG immuno-trap protease assay, pH 4.0 (relative fluorescence) [12]: 42700
- relative fluorescent product release, anti-FLAG immuno-trap protease assay, pH 5.0 (relative fluorescence) [12]: 38800
- relative fluorescent product release, anti-FLAG immuno-trap protease assay, pH 6.0 (relative fluorescence) [12]: 26500
- relative fluorescent product release, anti-FLAG immuno-trap protease assay, pH 7.0 (relative fluorescence) [12]: 23600

- relative fluorescent product release, anti-FLAG immuno-trap protease assay, pH 3.0 (relative fluorescence) [13]: 34600
- relative fluorescent product release, anti-FLAG immuno-trap protease assay, pH 4.0 (relative fluorescence) [13]: 28600
- relative fluorescent product release, anti-FLAG immuno-trap protease assay, pH 5.0 (relative fluorescence) [13]: 28500
- relative fluorescent product release, anti-FLAG immuno-trap protease assay, pH 6.0 (relative fluorescence) [13]: 23300
- relative fluorescent product release, anti-FLAG immuno-trap protease assay, pH 7.0 (relative fluorescence) [13]: 23700
Molecule: recombinant boPAG-17 (FLAG epitope tag fusion)

- relative fluorescent product release, anti-FLAG immuno-trap protease assay, pH 3.0 (relative fluorescence) [13]: 40300
- relative fluorescent product release, anti-FLAG immuno-trap protease assay, pH 4.0 (relative fluorescence) [13]: 32500
- relative fluorescent product release, anti-FLAG immuno-trap protease assay, pH 5.0 (relative fluorescence) [13]: 32100
- relative fluorescent product release, anti-FLAG immuno-trap protease assay, pH 6.0 (relative fluorescence) [13]: 24300
- relative fluorescent product release, anti-FLAG immuno-trap protease assay, pH 7.0 (relative fluorescence) [13]: 23300
Molecule: recombinant boPAG-19 (FLAG epitope tag fusion)

- relative fluorescent product release, anti-FLAG immuno-trap protease assay, pH 3.0 (relative fluorescence) [13]: 38600
- relative fluorescent product release, anti-FLAG immuno-trap protease assay, pH 4.0 (relative fluorescence) [13]: 31300
- relative fluorescent product release, anti-FLAG immuno-trap protease assay, pH 5.0 (relative fluorescence) [13]: 31400
- relative fluorescent product release, anti-FLAG immuno-trap protease assay, pH 6.0 (relative fluorescence) [13]: 24500
- relative fluorescent product release, anti-FLAG immuno-trap protease assay, pH 7.0 (relative fluorescence) [13]: 23800
Molecule: recombinant boPAG-20 (FLAG epitope tag fusion)

Molecule: recombinant bovine PAG-12 (fusion protein with the FLAG peptide)
- proteolytic activity (% relative activity) [12]: maximal activity for boPAG-12 and poPAG-2 was at pH 3.5

- relative fluorescent product release, anti-FLAG immuno-trap protease assay, pH 3.0 (negative control) (relative fluorescence) [13]: 38300
- relative fluorescent product release, anti-FLAG immuno-trap protease assay, pH 4.0 (negative control) (relative fluorescence) [13]: 33900
- relative fluorescent product release, anti-FLAG immuno-trap protease assay, pH 5.0 (negative control) (relative fluorescence) [13]: 35000
- relative fluorescent product release, anti-FLAG immuno-trap protease assay, pH 6.0 (negative control) (relative fluorescence) [13]: 28200
- relative fluorescent product release, anti-FLAG immuno-trap protease assay, pH 7.0 (negative control) (relative fluorescence) [13]: 26600
Molecule: recombinant equine-TSH-beta (from UniProt Q28376 21-138)

B1: recombinant bovine PAG-2 (fusion protein with the FLAG peptide) (protein)
chain: DYKDDDDKIVILPLKKMKTLRETLREKNLLNNFLEEQAYRLSKNDSKITIHPLRNYLDTAYVGNITIGTPPQEFRVVFDTGSANLWVPCITCTSPACYTHKTFNPQNSSSFREVGSPITIFYGSGIIQGFLGSDTVRIGNLVSPEQSFGLSLEEYGFDSLPFDGILGLAFPAMGIEDTIPIFDNLWSHGAFSEPVFAFYLNTNKPEGSVVMFGGVDHRYYKGELNWIPVSQTSHWQISMNNISMNGTVTACSCGCEALLDTGTSMIYGPTKLVTNIHKLMNARLENSEYVVSCDAVKTLPPVIFNINGIDYPLRPQAYIIKIQNSCRSVFQGGTENSSLNTWILGDIFLRQYFSVFDRKNRRIGLAPAV
- proteolytic activity (% relative activity) [14]: Maximal activity for boPAG-2 was at pH 4

B2: recombinant porcine PAG-2 (FLAG-tagged) (protein)
chain: DYKDDDDKLVMIPLTKVKSVRESLREKGLLKNFLKEHPYNMIQNLLSKNSSHVQKFSYQPLRNYLDMVYVGNISIGTPPQQFSVVFDTGSSDLWVPSIYCKSKACVTHRSFNPSHSSTFHDRGKSIKLEYGSGKMSGFLGQDTVRIGQLTSTGQAFGLSKEETGKAFEHAIFDGILGLAYPSIAIKGTTTVIDNLKKQDQISEPVFAFYLSSDKEEGSVVMFGGVDKKYYKGDLKWVPLTQTSYWQIALDRITCRGRVIGCPRGCQAIVDTGTSMLHGPSKAVAKIHSLIKHFEKEYVVPCNARKALPDIVFTINNVDYPVPAQAYIRKYVVPCNARKALPDIVFTINNVDYPVPAQAYIRKNANNNRCYSTFEDIMDTLNQREIWILGDVFLRLYFTVYDEGQNRIGLAQAT
- proteolytic activity (% relative activity) [14]: maximal activity for boPAG-12 and poPAG-2 was at pH 3.5

Reference: US20090258375A1
